Target: recombinant NRP1-derived trap consisting of the extracellular domain of NRP1 (UniProt O14786 22-856)
Experiment: SPR

Chain of recombinant NRP1-derived trap consisting of the extracellular domain of NRP1 (O14786 22-856): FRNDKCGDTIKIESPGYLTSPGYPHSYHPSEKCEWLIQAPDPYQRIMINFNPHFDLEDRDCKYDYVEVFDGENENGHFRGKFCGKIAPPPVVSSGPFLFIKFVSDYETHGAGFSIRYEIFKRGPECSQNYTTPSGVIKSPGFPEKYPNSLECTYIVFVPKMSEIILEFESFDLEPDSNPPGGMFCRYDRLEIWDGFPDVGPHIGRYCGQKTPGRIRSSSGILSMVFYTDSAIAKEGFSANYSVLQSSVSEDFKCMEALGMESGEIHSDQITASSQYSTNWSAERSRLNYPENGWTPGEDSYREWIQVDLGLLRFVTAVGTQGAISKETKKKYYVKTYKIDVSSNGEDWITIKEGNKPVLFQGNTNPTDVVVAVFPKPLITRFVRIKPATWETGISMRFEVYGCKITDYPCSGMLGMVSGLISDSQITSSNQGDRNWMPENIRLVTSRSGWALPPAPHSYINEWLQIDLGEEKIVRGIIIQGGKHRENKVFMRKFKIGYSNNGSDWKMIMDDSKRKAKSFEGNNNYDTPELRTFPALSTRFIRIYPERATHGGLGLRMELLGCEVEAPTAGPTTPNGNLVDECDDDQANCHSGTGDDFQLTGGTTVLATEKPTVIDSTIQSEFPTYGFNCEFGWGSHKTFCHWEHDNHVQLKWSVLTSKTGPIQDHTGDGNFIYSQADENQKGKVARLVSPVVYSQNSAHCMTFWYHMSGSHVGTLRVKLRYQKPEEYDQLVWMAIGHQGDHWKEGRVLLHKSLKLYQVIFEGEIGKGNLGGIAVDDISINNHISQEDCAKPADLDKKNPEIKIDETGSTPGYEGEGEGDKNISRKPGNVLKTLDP

B1: Semaphorin 3A (ligand)
chain: NYQNGKNNVPRLKLSYKEMLESNNVITFNGLANSSSYHTFLLDEERSRLYVGAKDHIFSFDLVNIKDFQKIVWPVSYTRRDECKWAGKDILKECANFIKVLKAYNQTHLYACGTGAFHPICTYIEIGHHPEDNIFKLENSHFENGRGKSPYDPKLLTASLLIDGELYSGTAADFMGRDFAIFRTLGHHHPIRTEQHDSRWLNDPKFISAHLISESDNPEDDKVYFFFRENAIDGEHSGKATHARIGQICKNDFGGHRSLVNKWTTFLKARLICSVPGPNGIDTHFDELQDVFLMNFKDPKNPVVYGVFTTSSNIFKGSAVCMYSMSDVRRVFLGPYAHRDGPNYQWVPYQGRVPYPRPGTCPSKTFGGFDSTKDLPDDVITFARSHPAMYNPVFPMNNRPIVIKTDVNYQFTQIVVDRVDAEDGQYDVMFIGTDVGTVLKVVSIPKETWYDLEEVLLEEMTVFREPTAISAMELSTKQQQLYIGSTAGVAQLPLHRCDIYGKACAECCLARDPYCAWDGSACSRYFPTAKRRTRRQDIRNGDPLTHCSDLHHDNHHGHSPEERIIYGVENSSTFLECSPKSQRALVYWQFQRRNEERKEEIRVDDHIIRTDQGLLLRSLQQKDSGNYLCHAVEHGFIQTLLKVTLEVIDTEHLEELLHKDDDGDGSKTKEMSNSMTPSQKVWYRDFMQLINHPNLNTMDEFCEQVWKRDRKQRRQRPGHTPGNSNKWKHLQENKKGRNRRTHEFERAPRSV
koff: 0.000155 s⁻¹

B2: vascular endothelial growth factor A (ligand)
chain: APMAEGGGQNHHEVVKFMDVYQRSYCHPIETLVDIFQEYPDEIEYIFKPSCVPLMRCGGCCNDEGLECVPTEESNITMQIMRIKPHQGQHIGEMSFLQHNKCECRPKKDRARQENPCGPCSERRKHLFVQDPQTCKCSCKNTDSRCKARQLELNERTCRCDKPRR
modifications: Assumed to be VEGF165, the customary recombinant product, because the isoform is not printed. Mature residues 1-165 equal entry residues 207-395 with the exon 6a region 321-345 replaced by the splice-junction Asn. K321N is this natural splice residue, not an engineered mutation. Disulfide-linked antiparallel homodimer.
koff: 0.0012 s⁻¹
